Substitutions are numbered along the chain they refer to. In names and notes the source's numbering stands.
How the values were obtained:
Assay in all cases: cell-based or functional assay
[1] = molecular target: HIV-1 strain AC10.0.29 envelope (gp120) (HIV-1)
[2] = molecular target: HIV-1 strain REJO4541.67 envelope (gp120) (HIV-1)
[3] = molecular target: HIV-1 strain T251-18 envelope (gp120) (HIV-1)
[4] = molecular target: HIV-1 strain CNE21 envelope (gp120) (HIV-1)
[5] = molecular target: HIV-1 strain 620345.c01 envelope (gp120) (HIV-1)
[6] = molecular target: HIV-1 strain CNE30 envelope (gp120) (HIV-1)
[7] = molecular target: HIV-1 strain CNE58 envelope (gp120) (HIV-1)
[8] = molecular target: HIV-1 strain WITO4160.33 envelope (gp120) (HIV-1)
[9] = molecular target: HIV-1 strain R2184.04 envelope (gp120) (HIV-1)
[10] = molecular target: HIV-1 Env of strain 231966.c02 (HIV-1)
[11] = molecular target: HIV-1 strain 6545.v4.c1 envelope (gp120) (HIV-1)
[12] = molecular target: HIV-1 strain Du156.12 envelope (gp120) (HIV-1)
[13] = molecular target: HIV-1 Env of strain QH0692.42 (HIV-1)
[14] = molecular target: HIV-1 strain ZM247v1(Rev-) envelope (gp120) (HIV-1)
[15] = molecular target: HIV-1 strain SC422661.8 envelope (gp120) (HIV-1)
[16] = molecular target: HIV-1 strain Du172.17 envelope (gp120) (HIV-1)
[17] = molecular target: HIV-1 Env of strain Du156.12 (HIV-1)
[18] = molecular target: HIV-1 strain 3103.v3.c10 envelope (gp120) (HIV-1)
[19] = molecular target: HIV-1 Env of strain ZM233M.PB6 (HIV-1)
[20] = molecular target: HIV-1 Env of strain Ce0682_E4 (HIV-1)
[21] = molecular target: HIV-1 strain 1054_07_TC4_1499 envelope (gp120) (HIV-1)
[22] = molecular target: HIV-1 strain RHPA4259.7 envelope (gp120) (HIV-1)
[23] = molecular target: HIV-1 strain PVO.4 envelope (gp120) (HIV-1)
[24] = molecular target: HIV-1 strain 62357_14_D3_4589 envelope (gp120) (HIV-1)
[25] = molecular target: HIV-1 Env of strain THRO4156.18 (HIV-1)
[26] = molecular target: HIV-1 Env of strain 6545.v4.cl (HIV-1)
[27] = molecular target: HIV-1 strain X1254_c3 envelope (gp120) (HIV-1)
[28] = molecular target: HIV-1 Env of strain C3347.c11 (HIV-1)
[29] = molecular target: HIV-1 strain 211-9 envelope (gp120) (HIV-1)
[30] = molecular target: HIV-1 Env of strain T250-4 (HIV-1)
[31] = molecular target: HIV-1 strain Ce2010_F5 envelope (gp120) (HIV-1)
[32] = molecular target: HIV-1 strain ZM109F.PB4 envelope (gp120) (HIV-1)
[33] = molecular target: HIV-1 Env of strain SC422661.8 (HIV-1)
[34] = molecular target: HIV-1 strain 6811.v7.c18 envelope (gp120) (HIV-1)
[35] = molecular target: HIV-1 Env of strain RHPA4259.7 (HIV-1)
[36] = molecular target: HIV-1 Env of strain 3718.v3.c11 (HIV-1)
[37] = molecular target: HIV-1 Env of strain 1006_11_C3_1601 (HIV-1)
[38] = molecular target: HIV-1 strain 6480.v4.c25 envelope (gp120) (HIV-1)
[39] = molecular target: HIV-1 strain ZM233M.PB6 envelope (gp120) (HIV-1)
[40] = molecular target: HIV-1 Env of strain X2131_C1_B5 (HIV-1)
[41] = molecular target: HIV-1 Env of strain TROJO4551.58 (HIV-1)
[42] = molecular target: HIV-1 Env of strain WITO4160.33 (HIV-1)
[43] = molecular target: HIV-1 Env of strain 703357.C02 (HIV-1)
[44] = molecular target: HIV-1 Env of strain 3415.v1.c1 (HIV-1)
[45] = molecular target: HIV-1 Env of strain CNE21 (HIV-1)
[46] = molecular target: HIV-1 strain 928-28 envelope (gp120) (HIV-1)
[47] = molecular target: HIV-1 strain T250-4 envelope (gp120) (HIV-1)
[48] = molecular target: HIV-1 Env of strain PVO.4 (HIV-1)
[49] = molecular target: HIV-1 Env of strain WEAU_d15_410_787 (HIV-1)
[50] = molecular target: HIV-1 strain 1006_11_C3_1601 envelope (gp120) (HIV-1)

B1: NIH45-46^G54Y IgG (antibody, name in Kabat numbering, V domains shown)
VH: QVRLSQSGGQMKKPGESMRLSCRASGYEFLNCPINWIRLAPGRRPEWMGWLKPRYGAVNYARKFQGRVTMTRDVYSDTAFLELRSLTSDDTAVYFCTRGKYCTARDYYNWDFEHWGRGAPVTVSS
VL: EIVLTQSPATLSLSPGETAIISCRTSQSGSLAWYQQRPGQAPRLVIYSGSTRAAGIPDRFSGSRWGADYNLSISNLESGDFGVYYCQQYEFFGQGTKVQVDI
[1]
  neutralization IC80: 0.9 µg/mL
[2]
  neutralization IC80: 0.02 µg/mL
[3]
  neutralization IC80: 1.16 µg/mL
[4]
  neutralization IC80: 0.29 µg/mL
[5]
  neutralization IC80: > 50 µg/mL
[6]
  neutralization IC80: 0.263 µg/mL
[7]
  neutralization IC80: 0.11 µg/mL
[8]
  neutralization IC80: 0.09 µg/mL
[9]
  neutralization IC80: 0.045 µg/mL
[10]
  neutralization IC50: 0.06 µg/mL
[11]
  neutralization IC80: > 50 µg/mL
[12]
  neutralization IC80: 0.026 µg/mL
[13]
  neutralization IC50: 0.52 µg/mL
[14]
  neutralization IC80: 3.57 µg/mL
[15]
  neutralization IC80: 0.09 µg/mL
[16]
  neutralization IC80: > 50 µg/mL
[17]
  neutralization IC50: 0.007 µg/mL
[18]
  neutralization IC80: 0.81 µg/mL
[19]
  neutralization IC50: 0.16 µg/mL
[20]
  neutralization IC50: 0.017 µg/mL
[21]
  neutralization IC80: 0.236 µg/mL
[22]
  neutralization IC80: 0.02 µg/mL
[23]
  neutralization IC80: 0.18 µg/mL
[24]
  neutralization IC80: 0.09 µg/mL
[25]
  neutralization IC50: 0.66 µg/mL
[26]
  neutralization IC50: > 50 µg/mL
[27]
  neutralization IC80: 0.041 µg/mL
[28]
  neutralization IC50: 0.011 µg/mL
[29]
  neutralization IC80: > 50 µg/mL
[30]
  neutralization IC50: > 50 µg/mL
[31]
  neutralization IC80: 0.235 µg/mL
[32]
  neutralization IC80: 0.168 µg/mL
[33]
  neutralization IC50: 0.04 µg/mL
[34]
  neutralization IC80: 0.059 µg/mL
[35]
  neutralization IC50: 0.007 µg/mL
[36]
  neutralization IC50: 0.3 µg/mL
[37]
  neutralization IC50: 0.005 µg/mL
[38]
  neutralization IC80: 0.051 µg/mL
[39]
  neutralization IC80: 0.78 µg/mL
[40]
  neutralization IC50: 0.1 µg/mL
[41]
  neutralization IC50: 0.03 µg/mL
[42]
  neutralization IC50: 0.03 µg/mL
[43]
  neutralization IC50: 5.6 µg/mL
[44]
  neutralization IC50: < 0.001 µg/mL
[45]
  neutralization IC50: 0.07 µg/mL
[46]
  neutralization IC80: 0.33 µg/mL
[47]
  neutralization IC80: > 50 µg/mL
[48]
  neutralization IC50: 0.06 µg/mL
[49]
  neutralization IC50: 0.002 µg/mL
[50]
  neutralization IC80: 0.021 µg/mL

B2: NIH45-46^G54W(HC), S28Y(LC) (antibody, V domains shown)
VH: B1 VH with Y55W
VL: B1 VL with S28Y
[10]
  IC50, pseudovirus neutralization: 0.012 µg/mL
[13]
  IC50, pseudovirus neutralization: 0.216 µg/mL
[17]
  IC50, pseudovirus neutralization: 0.003 µg/mL
[19]
  IC50, pseudovirus neutralization: 0.011 µg/mL
[20]
  IC50, pseudovirus neutralization: 0.007 µg/mL
[25]
  IC50, pseudovirus neutralization: 0.685 µg/mL
[28]
  IC50, pseudovirus neutralization: 0.007 µg/mL
[30]
  IC50, pseudovirus neutralization: 1.55 µg/mL
[33]
  IC50, pseudovirus neutralization: 0.024 µg/mL
[35]
  IC50, pseudovirus neutralization: 0.001 µg/mL
[37]
  IC50, pseudovirus neutralization: 0.009 µg/mL
[40]
  IC50, pseudovirus neutralization: 0.031 µg/mL
[42]
  IC50, pseudovirus neutralization: 0.015 µg/mL
[44]
  IC50, pseudovirus neutralization: 0.013 µg/mL
[45]
  IC50, pseudovirus neutralization: 0.001 µg/mL
[48]
  IC50, pseudovirus neutralization: 0.014 µg/mL
[49]
  IC50, pseudovirus neutralization: 0.008 µg/mL

B3: NIH45-46^G54W IgG (antibody, name in Kabat numbering, V domains shown)
VH: B1 VH with Y55W
VL: B1 VL
[1]
  neutralization IC80: 0.63 µg/mL
[2]
  neutralization IC80: 0.013 µg/mL
[3]
  neutralization IC80: 0.92 µg/mL
[4]
  neutralization IC80: 0.16 µg/mL
[5]
  neutralization IC80: > 50 µg/mL
[6]
  neutralization IC80: 0.196 µg/mL
[7]
  neutralization IC80: 0.05 µg/mL
[8]
  neutralization IC80: 0.04 µg/mL
[9]
  neutralization IC80: 0.036 µg/mL
[10]
  neutralization IC50: 0.02 µg/mL
[11]
  neutralization IC80: > 50 µg/mL
[12]
  neutralization IC80: 0.005 µg/mL
[13]
  neutralization IC50: 0.37 µg/mL
[14]
  neutralization IC80: 2.6 µg/mL
[15]
  neutralization IC80: 0.07 µg/mL
[16]
  neutralization IC80: 42.9 µg/mL
[17]
  neutralization IC50: < 0.001 µg/mL
[18]
  neutralization IC80: 0.56 µg/mL
[19]
  neutralization IC50: 0.02 µg/mL
[20]
  neutralization IC50: 0.01 µg/mL
[21]
  neutralization IC80: 0.165 µg/mL
[22]
  neutralization IC80: 0.007 µg/mL
[23]
  neutralization IC80: 0.16 µg/mL
[24]
  neutralization IC80: 0.07 µg/mL
[25]
  neutralization IC50: 0.54 µg/mL
[26]
  neutralization IC50: 18.9 µg/mL
[27]
  neutralization IC80: 0.018 µg/mL
[28]
  neutralization IC50: < 0.001 µg/mL
[29]
  neutralization IC80: > 50 µg/mL
[30]
  neutralization IC50: 1.33 µg/mL
[31]
  neutralization IC80: 0.187 µg/mL
[32]
  neutralization IC80: 0.07 µg/mL
[33]
  neutralization IC50: 0.02 µg/mL
[34]
  neutralization IC80: 0.033 µg/mL
[35]
  neutralization IC50: < 0.001 µg/mL
[36]
  improvement of neutralization potency over NIH45-46: 2000 fold
  neutralization IC50: 0.01 µg/mL
[37]
  neutralization IC50: < 0.001 µg/mL
[38]
  neutralization IC80: 0.021 µg/mL
[39]
  neutralization IC80: 0.11 µg/mL
[40]
  neutralization IC50: 0.05 µg/mL
[41]
  neutralization IC50: 0.01 µg/mL
[42]
  neutralization IC50: 0.01 µg/mL
[43]
  neutralization IC50: 3.43 µg/mL
[44]
  neutralization IC50: < 0.001 µg/mL
[45]
  neutralization IC50: 0.03 µg/mL
[46]
  neutralization IC80: 0.25 µg/mL
[47]
  neutralization IC80: 44.9 µg/mL
[48]
  neutralization IC50: 0.05 µg/mL
[49]
  neutralization IC50: < 0.001 µg/mL
[50]
  neutralization IC80: 0.008 µg/mL

B4: NIH45-46^G54W (antibody, V domains shown)
VH: B1 VH with Y55W
VL: B1 VL
[10]
  IC50, pseudovirus neutralization: 0.02 µg/mL
[13]
  IC50, pseudovirus neutralization: 0.37 µg/mL
[17]
  IC50, pseudovirus neutralization: 0.001 µg/mL
[19]
  IC50, pseudovirus neutralization: 0.02 µg/mL
[20]
  IC50, pseudovirus neutralization: 0.01 µg/mL
[25]
  IC50, pseudovirus neutralization: 0.54 µg/mL
[28]
  IC50, pseudovirus neutralization: 0.001 µg/mL
[30]
  IC50, pseudovirus neutralization: 1.33 µg/mL
[33]
  IC50, pseudovirus neutralization: 0.02 µg/mL
[35]
  IC50, pseudovirus neutralization: 0.001 µg/mL
[37]
  IC50, pseudovirus neutralization: 0.001 µg/mL
[40]
  IC50, pseudovirus neutralization: 0.05 µg/mL
[42]
  IC50, pseudovirus neutralization: 0.01 µg/mL
[44]
  IC50, pseudovirus neutralization: 0.001 µg/mL
[45]
  IC50, pseudovirus neutralization: 0.03 µg/mL
[48]
  IC50, pseudovirus neutralization: 0.05 µg/mL
[49]
  IC50, pseudovirus neutralization: 0.001 µg/mL
